Results published in the supplement of paper PMC9112550, “Optimization of the antimicrobial peptide Bac7 by deep mutational scanning” (BMC Biology, 2022).

What follows are sequences tested on Escherichia coli TOP10 (assay: shrunken log2 fold change of peptide-encoding DNA abundance (4.5 h post-induction vs induction); higher = less antimicrobial activity (less host growth inhibition)). Conditions: time post-induction: 4.5 h; library: site-saturation at positions 5, 18, 19, 20.
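Also: peptides expressed intracellularly from a pBAD plasmid library in pooled LB shake-flask culture, induced with 0.3% L-arabinose, DNA abundance read by NGS, three biological replicates, DESeq2 with apeglm shrinkage.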

Row | Sequence | shrunken log2 fold change
1 | RRIRMRPPRLPRPRPRPGSCPRP | 0.29
2 | RRIRMRPPRLPRPRPRPYMRPRP | 0.0391
3 | RRIRNRPPRLPRPRPRPQHVPRP | 0.000105
4 | RRIRLRPPRLPRPRPRPQPKPRP | 0.172
5 | RRIRQRPPRLPRPRPRPAKRPRP | 0.0228
6 | RRIRYRPPRLPRPRPRPKETPRP | -0.00674
7 | RRIRCRPPRLPRPRPRPWEDPRP | 0.156
8 | RRIRSRPPRLPRPRPRPIASPRP | 0.0102
9 | RRIRIRPPRLPRPRPRPWWCPRP | -0.196
10 | RRIRGRPPRLPRPRPRPKEWPRP | -0.00523
11 | RRIRVRPPRLPRPRPRPTREPRP | 0.59
12 | RRIRFRPPRLPRPRPRPWHRPRP | 2.08
13 | RRIRVRPPRLPRPRPRPSEPPRP | -0.11
14 | RRIRSRPPRLPRPRPRPGQKPRP | 0.0237
15 | RRIRRRPPRLPRPRPRPMQFPRP | -0.058
16 | RRIRQRPPRLPRPRPRPFMTPRP | -0.00963
17 | RRIRYRPPRLPRPRPRPEKGPRP | -0.00176
18 | RRIRVRPPRLPRPRPRPPSFPRP | 0.0364
19 | RRIRMRPPRLPRPRPRPISFPRP | -0.496
20 | RRIRPRPPRLPRPRPRPEVPPRP | 0.0363
21 | RRIRYRPPRLPRPRPRPMFNPRP | -1.14
22 | RRIRVRPPRLPRPRPRPCEDPRP | -0.0254
23 | RRIRWRPPRLPRPRPRPQSTPRP | 0.02
24 | RRIRPRPPRLPRPRPRPCFPPRP | -0.0413
25 | RRIRSRPPRLPRPRPRPAQIPRP | -0.0853

Row | Sequence | shrunken log2 fold change
26 | RRIRWRPPRLPRPRPRPDIYPRP | -0.0594
27 | RRIRNRPPRLPRPRPRPVNAPRP | 0.16
28 | RRIRDRPPRLPRPRPRPDCNPRP | 0.685
29 | RRIRFRPPRLPRPRPRPKLQPRP | -0.0358
30 | RRIRGRPPRLPRPRPRPKCAPRP | 1.61
31 | RRIRNRPPRLPRPRPRPQKFPRP | -0.0476
32 | RRIRSRPPRLPRPRPRPYNKPRP | -1.01
33 | RRIRIRPPRLPRPRPRPAGMPRP | -0.0321
34 | RRIRIRPPRLPRPRPRPRWTPRP | 0.0809
35 | RRIRGRPPRLPRPRPRPHHWPRP | 0.431
36 | RRIRRRPPRLPRPRPRPEKPPRP | 0.376
37 | RRIRCRPPRLPRPRPRPINCPRP | -0.0582
38 | RRIRCRPPRLPRPRPRPWPLPRP | 0.222
39 | RRIRMRPPRLPRPRPRPTFEPRP | -0.0436
40 | RRIRRRPPRLPRPRPRPYHEPRP | 0.016
41 | RRIRTRPPRLPRPRPRPRICPRP | -0.201
42 | RRIRERPPRLPRPRPRPQEIPRP | 0.0133
43 | RRIRRRPPRLPRPRPRPRVIPRP | 0.0591
44 | RRIRGRPPRLPRPRPRPHYIPRP | -0.0882
45 | RRIRRRPPRLPRPRPRPVSNPRP | -0.111
46 | RRIRHRPPRLPRPRPRPHQVPRP | -0.00848
47 | RRIRLRPPRLPRPRPRPWKKPRP | -0.279
48 | RRIRPRPPRLPRPRPRPMPRPRP | 0.238
49 | RRIRDRPPRLPRPRPRPTNQPRP | -0.00895
50 | RRIRCRPPRLPRPRPRPYFWPRP | -0.347

Row | Sequence | shrunken log2 fold change
51 | RRIRTRPPRLPRPRPRPMNWPRP | -0.234
52 | RRIRARPPRLPRPRPRPMEYPRP | -0.154
53 | RRIRCRPPRLPRPRPRPIAPPRP | 0.509
54 | RRIRDRPPRLPRPRPRPVIEPRP | 0.662
55 | RRIRCRPPRLPRPRPRPFLWPRP | -0.119
56 | RRIRYRPPRLPRPRPRPWRIPRP | -0.297
57 | RRIRMRPPRLPRPRPRPRSGPRP | 0.815
58 | RRIRQRPPRLPRPRPRPMPRPRP | 0.0657
59 | RRIRERPPRLPRPRPRPHKIPRP | -0.13
60 | RRIRPRPPRLPRPRPRPSFKPRP | -0.123
61 | RRIRVRPPRLPRPRPRPWENPRP | -0.0208
62 | RRIRYRPPRLPRPRPRPYMRPRP | -1.01
63 | RRIRVRPPRLPRPRPRPDPMPRP | -0.0769
64 | RRIRLRPPRLPRPRPRPEDHPRP | -0.0495
65 | RRIRYRPPRLPRPRPRPWMSPRP | -0.0725
66 | RRIRFRPPRLPRPRPRPVSIPRP | 0.0109
67 | RRIRQRPPRLPRPRPRPHMNPRP | -0.76
68 | RRIRFRPPRLPRPRPRPEWMPRP | 0.236
69 | RRIRLRPPRLPRPRPRPWQNPRP | -0.195
70 | RRIRFRPPRLPRPRPRPHRRPRP | 0.189
71 | RRIRRRPPRLPRPRPRPKSRPRP | 0.174
72 | RRIRCRPPRLPRPRPRPCHVPRP | -0.00144
73 | RRIRWRPPRLPRPRPRPRKDPRP | -0.0246
74 | RRIRSRPPRLPRPRPRPHHKPRP | -0.564
75 | RRIRTRPPRLPRPRPRPCYWPRP | 0.0189

Row | Sequence | shrunken log2 fold change
76 | RRIRLRPPRLPRPRPRPVFGPRP | 0.0724
77 | RRIRYRPPRLPRPRPRPILQPRP | 0.049
78 | RRIRVRPPRLPRPRPRPWVKPRP | -0.235
79 | RRIRERPPRLPRPRPRPRVYPRP | 0.000497
80 | RRIRGRPPRLPRPRPRPETMPRP | 1.14
81 | RRIRVRPPRLPRPRPRPSHCPRP | 0.109
82 | RRIRCRPPRLPRPRPRPSPRPRP | 0.485
83 | RRIRCRPPRLPRPRPRPRGWPRP | 0.605
84 | RRIRFRPPRLPRPRPRPARQPRP | 0.379
85 | RRIRHRPPRLPRPRPRPCKDPRP | -0.332
86 | RRIRFRPPRLPRPRPRPKWEPRP | 0.223
87 | RRIRWRPPRLPRPRPRPATPPRP | 0.755
88 | RRIRGRPPRLPRPRPRPNHDPRP | -0.185
89 | RRIRERPPRLPRPRPRPGYCPRP | -0.432
90 | RRIRLRPPRLPRPRPRPIFNPRP | -0.221
91 | RRIRFRPPRLPRPRPRPIAYPRP | -0.156
92 | RRIRFRPPRLPRPRPRPYCNPRP | -1.06
93 | RRIRIRPPRLPRPRPRPNEPPRP | -0.0172
94 | RRIRYRPPRLPRPRPRPRDWPRP | 0.0703
95 | RRIRTRPPRLPRPRPRPKDIPRP | -0.482
96 | RRIRFRPPRLPRPRPRPCACPRP | -0.0607
97 | RRIRLRPPRLPRPRPRPDTRPRP | -0.278
98 | RRIRIRPPRLPRPRPRPHHSPRP | -0.46
99 | RRIRIRPPRLPRPRPRPWPVPRP | -0.0355
100 | RRIRTRPPRLPRPRPRPGEMPRP | 0.136

Row | Sequence | shrunken log2 fold change
101 | RRIRARPPRLPRPRPRPAIWPRP | 0.709
102 | RRIRRRPPRLPRPRPRPDWSPRP | 0.182
103 | RRIRLRPPRLPRPRPRPYTVPRP | -0.121
104 | RRIRSRPPRLPRPRPRPPDTPRP | 0.237
105 | RRIRSRPPRLPRPRPRPGCTPRP | 0.22
106 | RRIRLRPPRLPRPRPRPVPRPRP | 0.352
107 | RRIRARPPRLPRPRPRPQAMPRP | 0.132
108 | RRIRWRPPRLPRPRPRPNVSPRP | -0.0556
109 | RRIRKRPPRLPRPRPRPGHLPRP | 0.0738
110 | RRIRRRPPRLPRPRPRPFRTPRP | -0.0909
111 | RRIRTRPPRLPRPRPRPPNFPRP | -0.0576
112 | RRIRERPPRLPRPRPRPCIRPRP | -0.152
113 | RRIRMRPPRLPRPRPRPAILPRP | 0.467
114 | RRIRCRPPRLPRPRPRPVKFPRP | -0.192
115 | RRIRKRPPRLPRPRPRPKCIPRP | 0.317
116 | RRIRSRPPRLPRPRPRPTFGPRP | -0.0366
117 | RRIRSRPPRLPRPRPRPNMVPRP | -0.0658
118 | RRIRPRPPRLPRPRPRPKPRPRP | 0.502
119 | RRIRCRPPRLPRPRPRPMKSPRP | -0.1
120 | RRIRSRPPRLPRPRPRPCQAPRP | 0.116
121 | RRIRCRPPRLPRPRPRPNCMPRP | -0.369
122 | RRIRRRPPRLPRPRPRPQKLPRP | 0.102
123 | RRIRRRPPRLPRPRPRPQHLPRP | -0.289
124 | RRIRTRPPRLPRPRPRPEHWPRP | -0.00863
125 | RRIRYRPPRLPRPRPRPHIYPRP | -0.725

Row | Sequence | shrunken log2 fold change
126 | RRIRYRPPRLPRPRPRPWVKPRP | 0.0136
127 | RRIRARPPRLPRPRPRPAITPRP | 0.322
128 | RRIRCRPPRLPRPRPRPQCHPRP | 0.134
129 | RRIRERPPRLPRPRPRPTTPPRP | -0.0926
130 | RRIRFRPPRLPRPRPRPPYHPRP | -0.454
131 | RRIRGRPPRLPRPRPRPHFEPRP | 0.328
132 | RRIRSRPPRLPRPRPRPRIAPRP | 0.174
133 | RRIRPRPPRLPRPRPRPSPWPRP | 0.0349
134 | RRIRVRPPRLPRPRPRPIPHPRP | -0.307
135 | RRIRFRPPRLPRPRPRPSLLPRP | -0.311
136 | RRIRCRPPRLPRPRPRPIPTPRP | -0.0788
137 | RRIRIRPPRLPRPRPRPRFTPRP | -0.043
138 | RRIRLRPPRLPRPRPRPEHVPRP | -0.0237
139 | RRIRGRPPRLPRPRPRPAIVPRP | 0.0899
140 | RRIRLRPPRLPRPRPRPRGRPRP | 0.149
141 | RRIRDRPPRLPRPRPRPWVEPRP | 0.105
142 | RRIRHRPPRLPRPRPRPCNTPRP | -0.416
143 | RRIRKRPPRLPRPRPRPFECPRP | -0.0669
144 | RRIRQRPPRLPRPRPRPYLFPRP | -0.509
145 | RRIRCRPPRLPRPRPRPWCCPRP | -0.649
146 | RRIRDRPPRLPRPRPRPGHMPRP | -0.0968
147 | RRIRIRPPRLPRPRPRPGVSPRP | -0.351
148 | RRIRARPPRLPRPRPRPNSFPRP | -0.232
149 | RRIRTRPPRLPRPRPRPLDKPRP | -0.18
150 | RRIRHRPPRLPRPRPRPNCGPRP | 0.00696
